{"source": "patent US20060051832A1", "about": "“Modified sarcosine oxidase, process for producing the same and reagent composition using the same” (Toyo Boseki Kabushiki Kaisha, priority 2002, published 2006)", "molecules": {"B1": {"name": "Arthrobacter sp. TE1826 sarcosine oxidase (SEQ ID NO:1) variant SAOM5B, V94G, E250Q, K89R (Arthrobacter sp. TE1826; E250Q/K89R/V94G) (protein)", "chain": "MSIKKDYDVIVVGAGSMGMAAGYYLSKQGVKTLLVDSFHPPHTNGSHHGDTRIIRHAYGEGREYVPFALRAQELWYELEKETHHKIFTRTGVLGFGPKGEAPFVAETMEAAKEHSLDVDLLEGSEINKRWPGVTVPENYNAIFEKNSGVLFSENCIRAYRELAEANGAKVLTYTPVEDFEIAEDFVKIQTAYGSFTASKLIVSMGAWNSKLLSKLNIEIPLQPYRQVVGFFECDEKKYSNTHGYPAFMVQVPTGIYYGFPSFGGCGLKIGYHTYGQKIDPDTINREFGIYPEDEGNIRKFLETYMPGATGELKSGDVCMYTKTPDEHFVIDLHPQFSNVAIAAGFSGHGFKFSSVVGETLSQLAVTGKTEHDISIFSINRPALKQKETI"}, "B2": {"name": "Arthrobacter sp. TE1826 sarcosine oxidase (SEQ ID NO:1) variant SAOM6B, K89R, V94G, S213P, E250Q (Arthrobacter sp. TE1826; E250Q/K89R/S213P/V94G) (protein)", "chain": "B1 chain with S213P"}, "B3": {"name": "Arthrobacter sp. TE1826 sarcosine oxidase (SEQ ID NO:1) variant SAOM7B, K89R, V94G, M204A, S213P, E250Q (Arthrobacter sp. TE1826; E250Q/K89R/M204A/S213P/V94G) (protein)", "chain": "B1 chain with M204A, S213P"}, "B4": {"name": "Arthrobacter sp. TE1826 sarcosine oxidase (SEQ ID NO:1) variant SAOM8B, K89R, V94G, N166K, M204A, S213P, E250Q (Arthrobacter sp. TE1826; … (protein)", "chain": "B1 chain with N166K, M204A, S213P"}, "B5": {"name": "Arthrobacter sp. TE1826 sarcosine oxidase, wild type (unmodified), SEQ ID NO:1 (Arthrobacter sp. TE1826) (protein)", "chain": "B1 chain with R89K, G94V, Q250E"}, "B6": {"name": "Arthrobacter sp. TE1826 sarcosine oxidase (SEQ ID NO:1) variant SAOM1B, K89R (Arthrobacter sp. TE1826; K89R) (protein)", "chain": "B1 chain with G94V, Q250E"}, "B7": {"name": "Arthrobacter sp. TE1826 sarcosine oxidase (SEQ ID NO:1) variant SAOM2B, V94G (Arthrobacter sp. TE1826; V94G) (protein)", "chain": "B1 chain with R89K, Q250E"}, "B8": {"name": "Arthrobacter sp. TE1826 sarcosine oxidase (SEQ ID NO:1) variant SAOM3B, K322R (Arthrobacter sp. TE1826; K322R) (protein)", "chain": "B1 chain with R89K, G94V, Q250E, K322R"}, "B9": {"name": "Arthrobacter sp. TE1826 sarcosine oxidase (SEQ ID NO:1) variant SAOM4B, V94G, E250Q (Arthrobacter sp. TE1826; E250Q/V94G) (protein)", "chain": "B1 chain with R89K"}}, "key": {"[1]": {"tested_on": "Arthrobacter sp. TE1826 modified sarcosine oxidases of Example 3B (SEQ ID NO:1 variants)", "test": "Km of modified sarcosine oxidases of Example 3B compared with unmodified", "type": "biochemical", "details": "modified vs unmodified; nearly equal to or within 1.5 times", "procedure": "(§1) • 100 mM Tris-HCl buffer (pH 8.0) (containing 200 mM sarcosine and 0.1% Triton X-100) • 0.1% 4-aminoantipyrine • 0.1% phenol • 25 U/mL peroxidase <Measurement Condition>\n(§2) A reaction mixture is prepared by mixing the above Tris-HCl buffer, 4-aminoantipyrine solution, phenol solution and peroxidase solution at a ratio of 5:1:2:2. The reaction mixture (1 mL) is taken to a test tube, preliminarily warmed at 37° C. for about 5 min, and 0.05 mL of an enzyme solution is added to start the reaction. The reaction at 37° C. is performed accurately for 10 min, then 2.0 mL of an aqueous solution of 0.25% SDS is added to stop the reaction, and an absorbance at 500 nm of this solution is measured. In a blind test, distilled water instead of the enzyme solution is added to the reagent mixture, and the same manipulation is followed to measure the absorbance. […] The reactivity to proline was measured as a relative ratio of activities when sarcosine in the above reagent was replaced by L-proline at the same concentration.\n(§3) Various sarcosine oxidases obtained in Example 3B and Comparative Example 1 were evaluated.\n(§4) Action on proline was calculated from a relative ratio (%) of the enzyme activity using L-proline as the substrate to the enzyme activity suing sarcosine as the substrate in the above activity measurement method. […]"}, "[2]": {"substrate": "CNCC(=O)O", "test": "Km of modified sarcosine oxidase SAOM5B", "type": "biochemical, Arthrobacter sp. TE1826", "details": "other: SAOM5B, 37° C., pH 8.0", "procedure": "as §1\nas §2, with “concentration. […]” for “concentration.”\nas §3, §4"}, "[3]": {"substrate": "CNCC(=O)O", "test": "Km of modified sarcosine oxidase SAOM6B", "type": "biochemical, Arthrobacter sp. TE1826", "details": "other: SAOM6B, 37° C., pH 8.0", "procedure": "as §1\nas §2, with “concentration. […]” for “concentration.”\nas §3, §4"}, "[4]": {"substrate": "CNCC(=O)O", "test": "Km of modified sarcosine oxidase SAOM7B", "type": "biochemical, Arthrobacter sp. TE1826", "details": "other: SAOM7B, 37° C., pH 8.0", "procedure": "as §1\nas §2, with “concentration. […]” for “concentration.”\nas §3, §4"}, "[5]": {"substrate": "CNCC(=O)O", "test": "Km of modified sarcosine oxidase SAOM8B", "type": "biochemical, Arthrobacter sp. TE1826", "details": "other: SAOM8B, 37° C., pH 8.0", "procedure": "as §1\nas §2, with “concentration. […]” for “concentration.”\nas §3, §4"}, "[6]": {"substrate": "CNCC(=O)O", "test": "Km of unmodified sarcosine oxidase (control, Comparative Example 1)", "type": "biochemical, Arthrobacter sp. TE1826", "details": "other: unmodified (control), 37° C., pH 8.0", "procedure": "as §1\nas §2, with “concentration. […]” for “concentration.”\nas §3, §4"}, "[7]": {"substrate": "CNCC(=O)O", "test": "Km of modified sarcosine oxidase SAOM1B", "type": "biochemical, Arthrobacter sp. TE1826", "details": "other: SAOM1B, K89R, 37° C., pH 8.0", "procedure": "as §1\nas §2, with “concentration. […]” for “concentration.”\nas §3, §4"}, "[8]": {"substrate": "CNCC(=O)O", "test": "Km of modified sarcosine oxidase SAOM2B", "type": "biochemical, Arthrobacter sp. TE1826", "details": "other: SAOM2B, V94G, 37° C., pH 8.0", "procedure": "as §1\nas §2, with “concentration. […]” for “concentration.”\nas §3, §4"}, "[9]": {"substrate": "CNCC(=O)O", "test": "Km of modified sarcosine oxidase SAOM3B", "type": "biochemical, Arthrobacter sp. TE1826", "details": "other: SAOM3B, K322R, 37° C., pH 8.0", "procedure": "as §1\nas §2, with “concentration. […]” for “concentration.”\nas §3, §4"}, "[10]": {"substrate": "CNCC(=O)O", "test": "Km of modified sarcosine oxidase SAOM4B", "type": "biochemical, Arthrobacter sp. TE1826", "details": "other: SAOM4B, 37° C., pH 8.0", "procedure": "as §1\nas §2, with “concentration. […]” for “concentration.”\nas §3, §4"}}, "note": "Numbering of substitutions follows the chain as printed. Names and notes keep the numbering of the source."}
{"molecule": "CNCC(=O)O", "note": "[sarcosine]", "values": [{"measurement": "Km value for sarcosine relative to the Km value of the unmodified sarcosine oxidase", "setting": "[1]", "result": "≤ 1.5", "unit": "times"}]}
{"molecule": "B1", "values": [{"measurement": "Km", "setting": "[2]", "result": 3.3, "unit": "mM mM"}]}
{"molecule": "B2", "values": [{"measurement": "Km", "setting": "[3]", "result": 3.5, "unit": "mM mM"}]}
{"molecule": "B3", "values": [{"measurement": "Km", "setting": "[4]", "result": 3.4, "unit": "mM mM"}]}
{"molecule": "B4", "values": [{"measurement": "Km", "setting": "[5]", "result": 3.4, "unit": "mM mM"}]}
{"molecule": "B5", "values": [{"measurement": "Km", "setting": "[6]", "result": 3.4, "unit": "mM mM"}]}
{"molecule": "B6", "values": [{"measurement": "Km", "setting": "[7]", "result": 3.4, "unit": "mM mM"}]}
{"molecule": "B7", "values": [{"measurement": "Km", "setting": "[8]", "result": 4.1, "unit": "mM mM"}]}
{"molecule": "B8", "values": [{"measurement": "Km", "setting": "[9]", "result": 4.7, "unit": "mM mM"}]}
{"molecule": "B9", "values": [{"measurement": "Km", "setting": "[10]", "result": 3.4, "unit": "mM mM"}]}
